# Data: paper PMC9482650, “Quantitative fragmentomics allow affinity mapping of interactomes” (Nature Communications, 2022)
# T1: MPDZ_10, O75970
# T1 sequence (O75970 1624-1722, limits assumed, looked up): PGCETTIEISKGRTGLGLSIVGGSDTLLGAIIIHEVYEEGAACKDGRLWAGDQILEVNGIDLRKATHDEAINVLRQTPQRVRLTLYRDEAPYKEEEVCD
# T2: RADIL, Q96JH8
# T2 sequence (Q96JH8 971-1071, limits assumed, looked up): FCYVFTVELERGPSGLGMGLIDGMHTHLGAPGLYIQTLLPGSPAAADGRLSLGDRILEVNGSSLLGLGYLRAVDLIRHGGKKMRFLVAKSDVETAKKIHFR
# T3: PCLO, Q9Y6V0
# T3 sequence (Q9Y6V0 4491-4600, limits assumed, looked up): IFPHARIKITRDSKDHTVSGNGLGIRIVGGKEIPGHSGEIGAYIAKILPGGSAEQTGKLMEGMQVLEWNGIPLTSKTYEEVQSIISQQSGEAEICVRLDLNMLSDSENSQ
# T4: DFNB31_1, Q9P202
# T4 sequence (Q9P202 135-233, limits assumed, looked up): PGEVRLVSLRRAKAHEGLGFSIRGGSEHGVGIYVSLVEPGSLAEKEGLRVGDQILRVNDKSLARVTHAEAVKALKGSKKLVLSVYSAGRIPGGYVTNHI
# T5: GRIP1_7, Q9Y3R0
# T5 sequence (Q9Y3R0 999-1096, limits assumed, looked up): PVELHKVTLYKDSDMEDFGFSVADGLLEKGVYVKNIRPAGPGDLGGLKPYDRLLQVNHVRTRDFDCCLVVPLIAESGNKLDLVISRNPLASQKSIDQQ
# T6: NHERF3_4, Q5T2W1
# T6 sequence (Q5T2W1 373-468, limits assumed, looked up): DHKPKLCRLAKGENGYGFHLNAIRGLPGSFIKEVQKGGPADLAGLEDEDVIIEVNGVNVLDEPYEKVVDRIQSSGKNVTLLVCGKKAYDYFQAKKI
# T7: LIN7A, O14910
# T7 sequence (O14910 103-200, limits assumed, looked up): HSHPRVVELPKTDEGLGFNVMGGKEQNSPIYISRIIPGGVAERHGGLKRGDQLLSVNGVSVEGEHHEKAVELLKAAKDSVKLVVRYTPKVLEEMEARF
# T8: HTRA4, P83105
# T8 sequence (P83105 378-476, limits assumed, looked up): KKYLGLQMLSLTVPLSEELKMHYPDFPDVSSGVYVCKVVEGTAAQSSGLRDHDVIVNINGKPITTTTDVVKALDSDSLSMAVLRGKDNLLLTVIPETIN
# T9: ARHGEF11, O15085
# T9 sequence (O15085 42-136, limits assumed, looked up): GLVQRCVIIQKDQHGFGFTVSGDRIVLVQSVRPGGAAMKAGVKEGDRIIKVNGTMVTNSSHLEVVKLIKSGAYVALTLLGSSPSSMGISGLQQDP
# T10: TX1BP3, O14907
# T10 sequence (O14907 10-122, limits assumed, looked up): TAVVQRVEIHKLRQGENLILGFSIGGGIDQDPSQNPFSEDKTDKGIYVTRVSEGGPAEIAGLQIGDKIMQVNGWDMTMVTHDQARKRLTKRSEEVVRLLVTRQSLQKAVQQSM
# T11: MPP2, Q14168
# T11 sequence (Q14168 180-250, limits assumed, looked up): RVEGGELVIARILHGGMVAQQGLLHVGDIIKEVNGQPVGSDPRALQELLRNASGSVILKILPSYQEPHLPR
# T12: LNX2_2, Q8N448
# T12 sequence (Q8N448 334-432, limits assumed, looked up): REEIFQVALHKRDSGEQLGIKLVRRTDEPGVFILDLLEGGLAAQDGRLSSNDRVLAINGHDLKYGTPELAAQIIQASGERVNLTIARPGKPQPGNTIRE
# B1: BANF1, O75531 (peptide)
# chain: CLREWCDAFL
# B2: GRIN2C, Q14957 (peptide)
# chain: RRISSLESEV
# Biological target: TJP1_2, Q07157
# Experiment: holdup assay
# Parameters: key: below the threshold = too weak to quantify, mostly under pKd 3.1 to 4
# Details: plain residues with an end cap or a label only (N-terminal biotin on a linker: ado-ado)
# Chain of TJP1_2, Q07157 (Q07157 181-274): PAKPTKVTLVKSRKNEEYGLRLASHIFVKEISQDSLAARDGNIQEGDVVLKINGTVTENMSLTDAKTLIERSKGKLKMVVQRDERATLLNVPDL
row,pKd,Binder
1,below the threshold,B1
2,below the threshold,B2

# Biological target: T1, MPDZ_10, O75970
# Experiment: holdup assay
# Parameters: key: below the threshold = too weak to quantify, mostly under pKd 3.1 to 4
# Details: plain residues with an end cap or a label only (N-terminal biotin on a linker: ado-ado)
row,pKd,Binder
1,below the threshold,B1
2,below the threshold,B2

# Biological target: Inadl_10, Q8NI35
# Experiment: holdup assay
# Parameters: key: below the threshold = too weak to quantify, mostly under pKd 3.1 to 4
# Details: plain residues with an end cap or a label only (N-terminal biotin on a linker: ado-ado)
# Chain of Inadl_10, Q8NI35 (Q8NI35 1673-1763): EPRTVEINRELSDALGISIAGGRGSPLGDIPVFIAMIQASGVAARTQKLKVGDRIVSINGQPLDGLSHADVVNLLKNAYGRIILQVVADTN
row,pKd,Binder
1,below the threshold,B1
2,below the threshold,B2

# Biological target: MAGI1_2, Q96QZ7
# Experiment: holdup assay
# Parameters: key: below the threshold = too weak to quantify, mostly under pKd 3.1 to 4
# Details: plain residues with an end cap or a label only (N-terminal biotin on a linker: ado-ado)
# Chain of MAGI1_2, Q96QZ7 (Q96QZ7 456-580): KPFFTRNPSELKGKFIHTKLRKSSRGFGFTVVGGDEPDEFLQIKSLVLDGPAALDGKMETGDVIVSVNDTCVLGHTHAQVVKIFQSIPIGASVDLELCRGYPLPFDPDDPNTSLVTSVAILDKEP
row,pKd,Binder
1,below the threshold,B1
2,4.05,B2

# Biological target: MAGI1_1, Q96QZ7
# Experiment: holdup assay
# Parameters: key: below the threshold = too weak to quantify, mostly under pKd 3.1 to 4
# Details: plain residues with an end cap or a label only (N-terminal biotin on a linker: ado-ado)
# Chain of MAGI1_1, Q96QZ7 (Q96QZ7 1-106): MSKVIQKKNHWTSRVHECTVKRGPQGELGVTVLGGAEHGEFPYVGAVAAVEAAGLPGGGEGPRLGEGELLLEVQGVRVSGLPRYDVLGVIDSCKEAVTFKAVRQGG
row,pKd,Binder
1,below the threshold,B1
2,below the threshold,B2

# Biological target: T2, RADIL, Q96JH8
# Experiment: holdup assay
# Parameters: key: below the threshold = too weak to quantify, mostly under pKd 3.1 to 4
# Details: plain residues with an end cap or a label only (N-terminal biotin on a linker: ado-ado)
row,pKd,Binder
1,3.85,B1
2,below the threshold,B2

# Biological target: LNX1_3, Q8TBB1
# Experiment: holdup assay
# Parameters: key: below the threshold = too weak to quantify, mostly under pKd 3.1 to 4
# Details: plain residues with an end cap or a label only (N-terminal biotin on a linker: ado-ado)
# Chain of LNX1_3, Q8TBB1 (Q8TBB1 500-596): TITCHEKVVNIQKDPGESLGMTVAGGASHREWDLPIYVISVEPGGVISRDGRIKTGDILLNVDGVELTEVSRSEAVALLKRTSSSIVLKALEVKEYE
row,pKd,Binder
1,below the threshold,B1
2,below the threshold,B2

# Biological target: T3, PCLO, Q9Y6V0
# Experiment: holdup assay
# Parameters: key: below the threshold = too weak to quantify, mostly under pKd 3.1 to 4
# Details: plain residues with an end cap or a label only (N-terminal biotin on a linker: ado-ado)
row,pKd,Binder
1,below the threshold,B1
2,below the threshold,B2

# Biological target: GOPC, Q9HD26
# Experiment: holdup assay
# Parameters: key: below the threshold = too weak to quantify, mostly under pKd 3.1 to 4
# Details: plain residues with an end cap or a label only (N-terminal biotin on a linker: ado-ado)
row,pKd,Binder
1,below the threshold,B1
2,below the threshold,B2

# Biological target: T4, DFNB31_1, Q9P202
# Experiment: holdup assay
# Parameters: key: below the threshold = too weak to quantify, mostly under pKd 3.1 to 4
# Details: plain residues with an end cap or a label only (N-terminal biotin on a linker: ado-ado)
row,pKd,Binder
1,below the threshold,B1
2,3.67,B2

# Biological target: Inadl_9, Q8NI35
# Experiment: holdup assay
# Parameters: key: below the threshold = too weak to quantify, mostly under pKd 3.1 to 4
# Details: plain residues with an end cap or a label only (N-terminal biotin on a linker: ado-ado)
# Chain of Inadl_9, Q8NI35 (Q8NI35 1530-1615): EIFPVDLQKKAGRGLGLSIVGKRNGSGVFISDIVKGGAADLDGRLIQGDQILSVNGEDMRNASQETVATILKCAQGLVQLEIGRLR
row,pKd,Binder
1,below the threshold,B1
2,below the threshold,B2

# Biological target: MAGI3_2, Q5TCQ9
# Experiment: holdup assay
# Parameters: key: below the threshold = too weak to quantify, mostly under pKd 3.1 to 4
# Details: plain residues with an end cap or a label only (N-terminal biotin on a linker: ado-ado)
# Chain of MAGI3_2, Q5TCQ9 (Q5TCQ9 398-503): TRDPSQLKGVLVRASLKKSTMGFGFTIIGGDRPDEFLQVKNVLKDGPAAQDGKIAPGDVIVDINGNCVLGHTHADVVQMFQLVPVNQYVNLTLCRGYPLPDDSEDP
row,pKd,Binder
1,below the threshold,B1
2,4.96,B2

# Biological target: T5, GRIP1_7, Q9Y3R0
# Experiment: holdup assay
# Parameters: key: below the threshold = too weak to quantify, mostly under pKd 3.1 to 4
# Details: plain residues with an end cap or a label only (N-terminal biotin on a linker: ado-ado)
row,pKd,Binder
1,below the threshold,B1
2,below the threshold,B2

# Biological target: FRMPD2_1, Q68DX3
# Experiment: holdup assay
# Parameters: key: below the threshold = too weak to quantify, mostly under pKd 3.1 to 4
# Details: plain residues with an end cap or a label only (N-terminal biotin on a linker: ado-ado)
# Chain of FRMPD2_1, Q68DX3 (Q68DX3 770-861): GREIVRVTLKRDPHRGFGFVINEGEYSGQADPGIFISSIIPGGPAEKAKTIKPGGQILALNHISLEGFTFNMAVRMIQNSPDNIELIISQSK
row,pKd,Binder
1,below the threshold,B1
2,below the threshold,B2

# Biological target: Inadl_5, Q8NI35
# Experiment: holdup assay
# Parameters: key: below the threshold = too weak to quantify, mostly under pKd 3.1 to 4
# Details: plain residues with an end cap or a label only (N-terminal biotin on a linker: ado-ado)
# Chain of Inadl_5, Q8NI35 (Q8NI35 673-780): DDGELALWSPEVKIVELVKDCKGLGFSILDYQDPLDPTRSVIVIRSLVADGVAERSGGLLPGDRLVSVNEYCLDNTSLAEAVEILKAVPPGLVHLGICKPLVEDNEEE
row,pKd,Binder
1,below the threshold,B1
2,below the threshold,B2

# Biological target: TJP2_1, Q9UDY2
# Experiment: holdup assay
# Parameters: key: below the threshold = too weak to quantify, mostly under pKd 3.1 to 4
# Details: plain residues with an end cap or a label only (N-terminal biotin on a linker: ado-ado)
# Chain of TJP2_1, Q9UDY2 (Q9UDY2 24-128): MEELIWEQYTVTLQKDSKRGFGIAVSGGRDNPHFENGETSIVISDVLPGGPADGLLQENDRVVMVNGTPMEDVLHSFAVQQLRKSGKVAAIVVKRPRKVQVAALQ
row,pKd,Binder
1,below the threshold,B1
2,below the threshold,B2

# Biological target: T6, NHERF3_4, Q5T2W1
# Experiment: holdup assay
# Parameters: key: below the threshold = too weak to quantify, mostly under pKd 3.1 to 4
# Details: plain residues with an end cap or a label only (N-terminal biotin on a linker: ado-ado)
row,pKd,Binder
1,3.62,B1
2,3.66,B2

# Biological target: IL16_3, Q14005
# Experiment: holdup assay
# Parameters: key: below the threshold = too weak to quantify, mostly under pKd 3.1 to 4
# Details: plain residues with an end cap or a label only (N-terminal biotin on a linker: ado-ado)
# Chain of IL16_3, Q14005 (Q14005 1107-1207): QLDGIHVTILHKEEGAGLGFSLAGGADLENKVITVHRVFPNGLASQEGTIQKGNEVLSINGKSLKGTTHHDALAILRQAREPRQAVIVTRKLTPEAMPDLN
row,pKd,Binder
1,below the threshold,B1
2,below the threshold,B2

# Biological target: T7, LIN7A, O14910
# Experiment: holdup assay
# Parameters: key: below the threshold = too weak to quantify, mostly under pKd 3.1 to 4
# Details: plain residues with an end cap or a label only (N-terminal biotin on a linker: ado-ado)
row,pKd,Binder
1,below the threshold,B1
2,below the threshold,B2

# Biological target: T8, HTRA4, P83105
# Experiment: holdup assay
# Parameters: key: below the threshold = too weak to quantify, mostly under pKd 3.1 to 4
# Details: plain residues with an end cap or a label only (N-terminal biotin on a linker: ado-ado)
row,pKd,Binder
1,3.64,B1
2,below the threshold,B2

# Biological target: T9, ARHGEF11, O15085
# Experiment: holdup assay
# Parameters: key: below the threshold = too weak to quantify, mostly under pKd 3.1 to 4
# Details: plain residues with an end cap or a label only (N-terminal biotin on a linker: ado-ado)
row,pKd,Binder
1,3.49,B1
2,3.98,B2

# Biological target: T10, TX1BP3, O14907
# Experiment: holdup assay
# Parameters: key: below the threshold = too weak to quantify, mostly under pKd 3.1 to 4
# Details: plain residues with an end cap or a label only (N-terminal biotin on a linker: ado-ado)
row,pKd,Binder
1,4.62,B1
2,5,B2

# Biological target: T11, MPP2, Q14168
# Experiment: holdup assay
# Parameters: key: below the threshold = too weak to quantify, mostly under pKd 3.1 to 4
# Details: plain residues with an end cap or a label only (N-terminal biotin on a linker: ado-ado)
row,pKd,Binder
1,below the threshold,B1
2,below the threshold,B2

# Biological target: T12, LNX2_2, Q8N448
# Experiment: holdup assay
# Parameters: key: below the threshold = too weak to quantify, mostly under pKd 3.1 to 4
# Details: plain residues with an end cap or a label only (N-terminal biotin on a linker: ado-ado)
row,pKd,Binder
1,below the threshold,B1
2,below the threshold,B2

# Biological target: FRMPD2_2, Q68DX3
# Experiment: holdup assay
# Parameters: key: below the threshold = too weak to quantify, mostly under pKd 3.1 to 4
# Details: plain residues with an end cap or a label only (N-terminal biotin on a linker: ado-ado)
# Chain of FRMPD2_2, Q68DX3 (Q68DX3 944-1038): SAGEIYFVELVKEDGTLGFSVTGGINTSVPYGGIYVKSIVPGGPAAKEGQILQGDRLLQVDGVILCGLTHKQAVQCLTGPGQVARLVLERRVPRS
row,pKd,Binder
1,below the threshold,B1
2,3.85,B2
